Reference: publication PMC13174313 (bioRxiv, 2026)

Experiments:
Test in all cases: ITC
[1] = target: TII: Tctex1 homodimer with two IC chains bound (D. melanogaster) (UniProt Q94524)
[2] = target: D. melanogaster dynein light chain LC8 (D. melanogaster, UniProt Q24117 1-89)
[3] = target: T1, D. melanogaster dynein light chain Tctex1 (D. melanogaster, UniProt Q94524 1-111)
T1 sequence: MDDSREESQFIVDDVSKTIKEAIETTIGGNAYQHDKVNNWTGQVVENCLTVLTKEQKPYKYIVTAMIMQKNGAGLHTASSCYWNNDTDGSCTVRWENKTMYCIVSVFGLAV

Sequence of D. melanogaster dynein light chain LC8 (D. melanogaster, UniProt Q24117 1-89) (Q24117 whole entry): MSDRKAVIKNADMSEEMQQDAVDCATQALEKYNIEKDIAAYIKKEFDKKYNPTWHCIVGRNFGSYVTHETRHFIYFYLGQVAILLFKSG

Molecule: D. melanogaster dynein light chain LC8 (from UniProt Q24117 1-89) (natural protein)
- dH (TII -> TIILII) [1]: -25.8 kcal/mol

B1: D. melanogaster dynein intermediate chain ICTL (domain or fragment, UniProt Q24246 84-143, looked up)
chain: SNTQTPDASLQATVNGQSGGKKQPLNLSVYNVQATNIPPKETLVYTKQTQTTSTGGGNGD
- dH, first IC on the LC8 dimer (LI) [2]: -14.8 kcal/mol
- dH, second IC on the LC8 dimer (LI to LII) [2]: -15.1 kcal/mol
- dH, first IC on the Tctex1 dimer (TI) [3]: -6.76 kcal/mol
- dH, second IC on the Tctex1 dimer (TI to TII) [3]: -4.97 kcal/mol
